{"source": "paper PMC12529666", "about": "“Dysregulation of AGO2-miRNA dynamics underlies the AGO2-associated Lessel–Kreienkamp syndrome”", "key": {"AGO2 L192P [1]": {"target": "T1, AGO2 L192P (Homo sapiens, UniProt Q9UKV8 1-859, L192P;S387D;S824A;S828D;S831D;S834A)", "T1 sequence (Q9UKV8 whole entry L192P/S387D/S824A/S828D/S831D/S834A)": "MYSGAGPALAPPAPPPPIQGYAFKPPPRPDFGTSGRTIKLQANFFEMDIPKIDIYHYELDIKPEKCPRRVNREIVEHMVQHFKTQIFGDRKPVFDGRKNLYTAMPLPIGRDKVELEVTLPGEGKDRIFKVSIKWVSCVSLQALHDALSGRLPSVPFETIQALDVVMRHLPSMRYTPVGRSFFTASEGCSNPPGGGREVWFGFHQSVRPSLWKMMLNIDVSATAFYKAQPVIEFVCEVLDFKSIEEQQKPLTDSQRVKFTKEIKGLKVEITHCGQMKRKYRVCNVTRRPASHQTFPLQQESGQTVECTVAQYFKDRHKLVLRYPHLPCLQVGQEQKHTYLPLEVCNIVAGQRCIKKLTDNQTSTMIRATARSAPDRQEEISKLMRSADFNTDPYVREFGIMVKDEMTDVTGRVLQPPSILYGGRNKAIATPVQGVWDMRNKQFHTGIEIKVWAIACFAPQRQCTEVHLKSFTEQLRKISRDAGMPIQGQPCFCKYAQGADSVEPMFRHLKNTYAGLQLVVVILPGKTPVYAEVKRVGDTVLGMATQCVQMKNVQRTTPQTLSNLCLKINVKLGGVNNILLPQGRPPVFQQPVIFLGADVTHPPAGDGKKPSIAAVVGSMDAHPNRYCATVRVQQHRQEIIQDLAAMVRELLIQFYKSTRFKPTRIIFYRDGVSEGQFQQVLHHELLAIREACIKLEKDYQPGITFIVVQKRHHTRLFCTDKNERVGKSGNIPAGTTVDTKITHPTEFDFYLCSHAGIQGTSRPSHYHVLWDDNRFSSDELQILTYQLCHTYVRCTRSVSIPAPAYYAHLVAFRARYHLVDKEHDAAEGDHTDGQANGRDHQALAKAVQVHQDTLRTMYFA", "test": "filter binding (dissociation); 300 nM unlabeled target chase; slowest release; 30 mM Tris pH 8.0, 100 mM KOAc, 2 mM MgOAc, 0.5 mM TCEP, 0.005% NP-40, 0.01 mg/ml yeast tRNA, room temperature, 2 h (equilibrium); association buffer listed without Mg", "details": "protein: recombinant; tags: His6 (N-terminal, pFastBac HTA); label: 32P 5' on target; guide g2-g8 paired with target ACACUCC; remainder unpaired"}, "AGO2 L192P [2]": {"target": "T1, AGO2 L192P", "test": "filter binding (association); AGO2-miR-122 0.25-1.5 nM; 30 mM Tris pH 8.0, 100 mM KOAc, 2 mM MgOAc, 0.5 mM TCEP, 0.005% NP-40, 0.01 mg/ml yeast tRNA, room temperature, 2 h (equilibrium); association buffer listed without Mg", "details": "protein: recombinant; tags: His6 (N-terminal, pFastBac HTA); label: 32P 5' on target; guide g2-g8 paired with target ACACUCC; remainder unpaired"}, "AGO2 A367P [3]": {"target": "T2, AGO2 A367P (Homo sapiens, UniProt Q9UKV8 1-859, A367P;S387D;S824A;S828D;S831D;S834A)", "T2 sequence (Q9UKV8 whole entry A367P/S387D/S824A/S828D/S831D/S834A)": "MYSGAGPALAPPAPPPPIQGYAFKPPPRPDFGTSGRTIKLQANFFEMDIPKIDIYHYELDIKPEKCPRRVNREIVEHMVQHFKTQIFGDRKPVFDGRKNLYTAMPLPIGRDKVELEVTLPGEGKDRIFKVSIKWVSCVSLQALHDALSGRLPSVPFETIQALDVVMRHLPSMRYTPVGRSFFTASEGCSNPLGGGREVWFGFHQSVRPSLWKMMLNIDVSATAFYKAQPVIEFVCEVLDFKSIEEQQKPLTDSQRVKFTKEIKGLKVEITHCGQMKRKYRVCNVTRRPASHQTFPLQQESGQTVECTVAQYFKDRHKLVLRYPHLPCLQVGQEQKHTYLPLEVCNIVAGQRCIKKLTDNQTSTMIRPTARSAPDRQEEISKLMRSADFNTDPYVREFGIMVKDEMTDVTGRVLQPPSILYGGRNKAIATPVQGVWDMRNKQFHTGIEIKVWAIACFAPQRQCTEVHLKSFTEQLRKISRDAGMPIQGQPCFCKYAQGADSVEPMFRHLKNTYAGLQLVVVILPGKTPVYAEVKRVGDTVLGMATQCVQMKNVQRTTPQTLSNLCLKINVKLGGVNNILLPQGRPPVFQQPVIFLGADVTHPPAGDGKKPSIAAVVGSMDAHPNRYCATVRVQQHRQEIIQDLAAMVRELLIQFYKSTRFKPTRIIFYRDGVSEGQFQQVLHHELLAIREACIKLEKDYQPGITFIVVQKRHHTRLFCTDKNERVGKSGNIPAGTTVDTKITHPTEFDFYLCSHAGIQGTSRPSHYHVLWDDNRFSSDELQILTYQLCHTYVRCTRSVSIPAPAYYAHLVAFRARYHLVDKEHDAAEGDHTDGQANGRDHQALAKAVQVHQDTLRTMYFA", "test": "filter binding (association); AGO2-miR-122 0.25-1.5 nM; 30 mM Tris pH 8.0, 100 mM KOAc, 2 mM MgOAc, 0.5 mM TCEP, 0.005% NP-40, 0.01 mg/ml yeast tRNA, room temperature, 2 h (equilibrium); association buffer listed without Mg", "details": "protein: recombinant; tags: His6 (N-terminal, pFastBac HTA); label: 32P 5' on target; guide g2-g8 paired with target ACACUCC; remainder unpaired"}, "AGO2 T357M [4]": {"target": "T3, AGO2 T357M (Homo sapiens, UniProt Q9UKV8 1-859, T357M;S387D;S824A;S828D;S831D;S834A)", "T3 sequence (Q9UKV8 whole entry T357M/S387D/S824A/S828D/S831D/S834A)": "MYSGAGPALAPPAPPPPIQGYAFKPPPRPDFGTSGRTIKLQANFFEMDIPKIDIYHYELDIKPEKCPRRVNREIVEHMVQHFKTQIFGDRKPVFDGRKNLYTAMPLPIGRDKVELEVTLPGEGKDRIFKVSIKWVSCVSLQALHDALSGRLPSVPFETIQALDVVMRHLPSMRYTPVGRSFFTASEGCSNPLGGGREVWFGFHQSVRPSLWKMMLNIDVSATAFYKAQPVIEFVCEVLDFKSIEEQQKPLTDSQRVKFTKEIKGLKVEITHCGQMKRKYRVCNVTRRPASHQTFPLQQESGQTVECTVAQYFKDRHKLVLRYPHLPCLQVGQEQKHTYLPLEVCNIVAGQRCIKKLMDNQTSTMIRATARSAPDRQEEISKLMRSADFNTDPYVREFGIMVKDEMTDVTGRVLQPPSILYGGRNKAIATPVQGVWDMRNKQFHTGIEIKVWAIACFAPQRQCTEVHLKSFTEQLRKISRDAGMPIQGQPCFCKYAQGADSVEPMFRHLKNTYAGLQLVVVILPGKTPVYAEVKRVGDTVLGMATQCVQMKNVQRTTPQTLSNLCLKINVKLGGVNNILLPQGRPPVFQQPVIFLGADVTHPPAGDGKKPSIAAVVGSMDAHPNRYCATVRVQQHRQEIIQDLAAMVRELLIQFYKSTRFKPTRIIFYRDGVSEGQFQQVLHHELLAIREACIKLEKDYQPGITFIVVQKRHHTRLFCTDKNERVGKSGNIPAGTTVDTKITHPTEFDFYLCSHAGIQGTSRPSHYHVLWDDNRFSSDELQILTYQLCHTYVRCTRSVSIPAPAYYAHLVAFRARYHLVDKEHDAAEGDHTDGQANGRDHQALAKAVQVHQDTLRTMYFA", "test": "filter binding; 2 mM Mg2+; 30 mM Tris pH 8.0, 100 mM KOAc, 2 mM MgOAc, 0.5 mM TCEP, 0.005% NP-40, 0.01 mg/ml yeast tRNA, room temperature, 2 h (equilibrium); association buffer listed without Mg", "details": "protein: recombinant; tags: His6 (N-terminal, pFastBac HTA); label: 32P 5' on target; guide g2-g8 paired with target ACACUCC; remainder unpaired"}, "AGO2 T357M [5]": {"target": "T3, AGO2 T357M", "test": "filter binding (dissociation); 300 nM unlabeled target chase; 30 mM Tris pH 8.0, 100 mM KOAc, 2 mM MgOAc, 0.5 mM TCEP, 0.005% NP-40, 0.01 mg/ml yeast tRNA, room temperature, 2 h (equilibrium); association buffer listed without Mg", "details": "protein: recombinant; tags: His6 (N-terminal, pFastBac HTA); label: 32P 5' on target; guide g2-g8 paired with target ACACUCC; remainder unpaired"}, "AGO2 A367P [6]": {"target": "T2, AGO2 A367P", "test": "filter binding (dissociation); 300 nM unlabeled target chase; 30 mM Tris pH 8.0, 100 mM KOAc, 2 mM MgOAc, 0.5 mM TCEP, 0.005% NP-40, 0.01 mg/ml yeast tRNA, room temperature, 2 h (equilibrium); association buffer listed without Mg", "details": "protein: recombinant; tags: His6 (N-terminal, pFastBac HTA); label: 32P 5' on target; guide g2-g8 paired with target ACACUCC; remainder unpaired"}, "AGO2 T357M [7]": {"target": "T3, AGO2 T357M", "test": "northern blot of purified complex; ~1:1 AGO2:miR-122; 30 mM Tris pH 8.0, 100 mM KOAc, 2 mM MgOAc, 0.5 mM TCEP, 0.005% NP-40, 0.01 mg/ml yeast tRNA, room temperature, 2 h (equilibrium); association buffer listed without Mg", "details": "protein: recombinant; tags: His6 (N-terminal, pFastBac HTA)"}, "AGO2 L192P [8]": {"target": "T1, AGO2 L192P", "test": "northern blot of purified complex; ~1:1 AGO2:miR-122; 30 mM Tris pH 8.0, 100 mM KOAc, 2 mM MgOAc, 0.5 mM TCEP, 0.005% NP-40, 0.01 mg/ml yeast tRNA, room temperature, 2 h (equilibrium); association buffer listed without Mg", "details": "protein: recombinant; tags: His6 (N-terminal, pFastBac HTA)"}, "AGO2 A367P [9]": {"target": "T2, AGO2 A367P", "test": "northern blot of purified complex; ~1:1 AGO2:miR-122; 30 mM Tris pH 8.0, 100 mM KOAc, 2 mM MgOAc, 0.5 mM TCEP, 0.005% NP-40, 0.01 mg/ml yeast tRNA, room temperature, 2 h (equilibrium); association buffer listed without Mg", "details": "protein: recombinant; tags: His6 (N-terminal, pFastBac HTA)"}, "AGO2 F182del [10]": {"target": "T4, AGO2 F182del (Homo sapiens, UniProt Q9UKV8 1-859, S387D;S824A;S828D;S831D;S834A;del182-182)", "T4 sequence (Q9UKV8 other isoform, or with tags, fused parts or gaps S387D;S824A;S828D;S831D;S834A;del182-182)": "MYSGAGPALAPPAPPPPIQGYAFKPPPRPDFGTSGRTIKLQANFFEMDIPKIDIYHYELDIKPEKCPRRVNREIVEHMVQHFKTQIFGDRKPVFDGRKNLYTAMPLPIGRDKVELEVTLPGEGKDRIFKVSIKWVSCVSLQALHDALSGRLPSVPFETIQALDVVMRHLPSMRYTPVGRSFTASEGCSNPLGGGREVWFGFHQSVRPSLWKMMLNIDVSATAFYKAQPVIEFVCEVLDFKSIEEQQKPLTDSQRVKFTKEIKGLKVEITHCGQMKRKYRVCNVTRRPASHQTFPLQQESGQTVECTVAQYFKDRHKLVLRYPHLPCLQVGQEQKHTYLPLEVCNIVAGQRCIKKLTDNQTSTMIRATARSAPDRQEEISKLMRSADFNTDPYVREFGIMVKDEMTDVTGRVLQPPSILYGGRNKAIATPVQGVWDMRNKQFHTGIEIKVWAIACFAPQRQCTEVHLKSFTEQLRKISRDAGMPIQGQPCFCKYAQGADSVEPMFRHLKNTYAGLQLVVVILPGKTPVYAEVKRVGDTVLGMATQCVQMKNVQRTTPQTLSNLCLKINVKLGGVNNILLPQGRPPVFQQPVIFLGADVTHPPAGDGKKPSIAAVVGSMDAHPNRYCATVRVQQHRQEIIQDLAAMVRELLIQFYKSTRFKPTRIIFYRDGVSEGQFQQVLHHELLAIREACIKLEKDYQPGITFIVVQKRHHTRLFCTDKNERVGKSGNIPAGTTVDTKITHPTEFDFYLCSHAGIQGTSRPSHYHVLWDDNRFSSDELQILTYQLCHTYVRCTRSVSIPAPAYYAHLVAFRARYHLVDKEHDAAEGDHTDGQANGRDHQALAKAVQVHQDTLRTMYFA", "test": "northern blot of purified complex; ~1:1 AGO2:miR-122; 30 mM Tris pH 8.0, 100 mM KOAc, 2 mM MgOAc, 0.5 mM TCEP, 0.005% NP-40, 0.01 mg/ml yeast tRNA, room temperature, 2 h (equilibrium); association buffer listed without Mg", "details": "protein: recombinant; tags: His6 (N-terminal, pFastBac HTA)"}, "AGO2 T357M [11]": {"target": "T3, AGO2 T357M", "test": "pull-down; recovery similar to WT; 30 mM Tris pH 8.0, 100 mM KOAc, 2 mM MgOAc, 0.5 mM TCEP, 0.005% NP-40, 0.01 mg/ml yeast tRNA, room temperature, 2 h (equilibrium); association buffer listed without Mg", "details": "protein: recombinant; tags: His6 (N-terminal, pFastBac HTA); label: biotin on capture oligo; guide paired in part with capture oligo"}, "AGO2 L192P [12]": {"target": "T1, AGO2 L192P", "test": "pull-down; recovery similar to WT; 30 mM Tris pH 8.0, 100 mM KOAc, 2 mM MgOAc, 0.5 mM TCEP, 0.005% NP-40, 0.01 mg/ml yeast tRNA, room temperature, 2 h (equilibrium); association buffer listed without Mg", "details": "protein: recombinant; tags: His6 (N-terminal, pFastBac HTA); label: biotin on capture oligo; guide paired in part with capture oligo"}, "AGO2 A367P [13]": {"target": "T2, AGO2 A367P", "test": "pull-down; recovery similar to WT; 30 mM Tris pH 8.0, 100 mM KOAc, 2 mM MgOAc, 0.5 mM TCEP, 0.005% NP-40, 0.01 mg/ml yeast tRNA, room temperature, 2 h (equilibrium); association buffer listed without Mg", "details": "protein: recombinant; tags: His6 (N-terminal, pFastBac HTA); label: biotin on capture oligo; guide paired in part with capture oligo"}, "AGO2 F182del [14]": {"target": "T4, AGO2 F182del", "test": "pull-down; recovery similar to WT; 30 mM Tris pH 8.0, 100 mM KOAc, 2 mM MgOAc, 0.5 mM TCEP, 0.005% NP-40, 0.01 mg/ml yeast tRNA, room temperature, 2 h (equilibrium); association buffer listed without Mg", "details": "protein: recombinant; tags: His6 (N-terminal, pFastBac HTA); label: biotin on capture oligo; guide paired in part with capture oligo"}}}
{"binder": "miR-122 guide / seed-matched target RNA (dsRNA, 5' phosphate on guide) RNA 1: UGGAGUGUGACAAUGGUGUUUG RNA 2: AAAAAAAAAAAAACACUCCUAA", "values": [{"measurement": "binding signal", "setting": "AGO2 L192P [1]", "value": "~20 fold slower koff (slow phase) vs near-WT fast phase"}, {"measurement": "binding signal", "setting": "AGO2 L192P [2]", "value": "> 5 fold slower association than WT (at least)"}, {"measurement": "binding signal", "setting": "AGO2 A367P [3]", "value": "> 5 fold slower association than WT (at least)"}, {"measurement": "binding signal", "setting": "AGO2 T357M [4]", "value": "1.8 fold lower KD than WT (not significant)"}, {"measurement": "binding signal", "setting": "AGO2 T357M [5]", "value": "~20 fold slower koff (slow phase) vs near-WT fast phase"}, {"measurement": "binding signal", "setting": "AGO2 A367P [6]", "value": "~20 fold slower koff (slow phase) vs near-WT fast phase"}]}
{"binder": "UGGAGUGUGACAAUGGUGUUUG (ssRNA, 5' phosphate)", "note": "[miR-122 guide RNA]", "values": [{"measurement": "binding result", "setting": "AGO2 T357M [7]", "value": "binds"}, {"measurement": "binding result", "setting": "AGO2 L192P [8]", "value": "binds"}, {"measurement": "binding result", "setting": "AGO2 A367P [9]", "value": "binds"}, {"measurement": "binding result", "setting": "AGO2 F182del [10]", "value": "binds"}]}
{"binder": "miR-122 guide / biotinylated capture oligo (DNA:RNA, 5' phosphate on guide) RNA: UGGAGUGUGACAAUGGUGUUUG DNA: TCTCGTCTAACCATGCCAACACTCCAACTCT", "values": [{"measurement": "binding result", "setting": "AGO2 T357M [11]", "value": "binds"}, {"measurement": "binding result", "setting": "AGO2 L192P [12]", "value": "binds"}, {"measurement": "binding result", "setting": "AGO2 A367P [13]", "value": "binds"}, {"measurement": "binding result", "setting": "AGO2 F182del [14]", "value": "binds"}]}
